According to the supplement of paper PMC10567573:

B1: TRIM39 (parent)
chain: YPCVLATEGFTSGRHYWEVEVGDK
B2: KRT15 (parent)
chain: SNFHINVEESVDGQVVSSHKREI

Variants of: B1
Test: protein stability index of a GFP-peptide fusion (GPS, HEK-293T) (PSI 1-6); higher = more stable
Conditions: c terminus: a fixed tail appended
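Also: lentivirally expressed fusions sorted by FACS into six bins by GFP to DsRed ratio, PSI derived from sequencing read proportions per bin multiplied by bin number.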

Protein stability index: each site, then its substitutions
Y16: I 2.33; G 2.98; P 1.78; E 2.6; R 2.02; H 2.04; Q 2.16; N 2.56; C 1.5; T 1.35; V 2.08; W 4.12; S 1.75; A 2.38; D 3.52; K 2.38; F 1.2; L 1.76; M 2.45
L5: W 2.18; P 1.56; A 1.87; E 2.34; Q 2.31; D 2.17; K 2.21; T 2.16; G 1.87; V 1.74; C 1.22; F 1.57; H 1.36; R 1.54; S 2.26; I 1.69; M 1.46; N 2.58; Y 2.3
H15: L 1.56; S 2.16; Q 2.6; T 2.17; P 2.16; W 2.1; E 3.05; F 1.9; A 2.61; D 2.93; R 1.97; K 2.06; Y 2.58; M 1.32; N 2.76; G 1.98; V 2.27; C 2.2; I 1.22
T7: G 1.77; L 1.98; V 1.79; E 2.16; F 2.32; Y 1.09; S 1.57; D 1.74; H 1.59; P 1.75; K 2.46; N 2.45; Q 1.56; C 1.84; A 2.27; I 1.63
F10: N 2.34; P 2.12; A 1.55; L 1.86; D 2.45; K 1.4; G 2.48; I 2.15; V 1.66; W 1.85; S 1.9; E 2.77; Q 1.63; H 1.86; T 2.49; R 2.41; M 2.69; Y 2.26
E18: K 1.73; H 1.43; F 1.81; M 1.51; Y 2.71; I 1.89; S 2.72; A 3.12; D 1.45; N 2.38; W 2.2; Q 1.05; G 2.82; P 1.92
S12: Q 1.66; N 1.95; A 2.15; H 1.67; C 1.96; G 1.6; P 1.81; L 1.97; V 1.6; Y 1.68; T 1.76; D 2.79; R 2.79; K 1.95; M 3.54; F 1.34; W 1.98; I 2.33
T11: W 2.66; H 1.71; S 1.58; K 2.19; I 2.59; Y 3.04; M 1.73; L 1.89; C 1.73; E 2.39; N 2.67; V 1.44; F 2.55; D 2.17; A 1.97; P 2.19; R 2.82; Q 1.72; G 2.09
R14: Q 2.36; K 1.69; G 2.48; W 1.66; E 3.04; S 2.07; N 1.91; C 1.79; A 2.37; H 1.71; T 2.27; Y 1.95; L 2.45; V 2.06; F 1.81; P 2.32; M 1.66; I 2.17; D 2.66
P2: N 2.21; D 2.92; G 2.58; M 1.76; R 1.86; T 2.21; F 1.78; E 2.67; S 1.52; V 2.4; A 1.84; Y 1.66; C 1.94; I 1.1; Q 2.05; K 1.99; L 2.35
V19: A 1.96
G13: N 1.57; R 2.09; M 1.59; T 1.72; F 1.56; H 1.46; W 1.47; A 1.48; E 1.87; D 2.24; Q 1.71; P 1.74; S 2.03; I 1.73; L 1.95; Y 1.2; K 2.39; V 2.15; C 1.91
E8: L 1.89; G 2.09; Q 1.87; K 2.25; Y 1.35; S 1.25; M 2.25; F 2.06; A 1.33; R 1.58; N 1.85; H 1.93; I 2.16; D 1.93; P 1.62; V 2.14; T 2.01
C3: L 2.09; A 2.05; V 2.01; D 1.9; W 1.97; Q 1.9; K 1.48; G 1.98; T 1.81; Y 1.98; F 1.86; S 2; H 1.98; I 2.41; E 3.41; N 1.7; R 2.99; M 1.91
Y1: M 3.11; D 3.45; P 4.24; I 2.98; E 3.65; N 3.76; L 2.96; R 3.52; W 2.74; G 3.34; S 3.49; V 2.8; F 1.59; C 2.7; K 3.15; T 3.78; Q 3.71; A 3.11; H 3.55
A6: R 1.36; K 1.59; Q 2.47; V 1.89; Y 1.43; E 1.71; N 2.47; L 1.45; W 2.16; P 1.75; M 1.4; H 1.99; I 2.09; F 1.27; G 2.38; C 1.44; T 3; D 2.12; S 1.44
W17: I 2.95; P 3.54; K 2.76; R 2.88; Y 2.24; N 3.77; E 3.84; H 3.07; A 3.49; L 2.97; Q 3.68; V 2.44; D 3.88; G 3.44; T 3.6; M 3.21; C 3.22; F 2.41; S 3.62
G9: Y 2.22; D 2.01; V 1.81; P 2.21; I 1.05; M 1.66; N 1.99; A 2.49; E 2.2; K 1.8; H 1.6; R 2.38; Q 2.04; S 1.81; F 2.97; T 2.03; C 1.57; W 1.96
V4: E 2.88; Q 1.46; K 1.79; M 2.06; W 1.74; Y 2.41; N 1.85; S 1.61; R 1.78; D 2.54; H 1.52; A 1.73; T 1.68; I 1.85; F 2.18; C 2.03; L 2.13; G 2.69; P 2.01

Variants of: B2
Test: as above
Conditions: c terminus: native

Protein stability index, by site and new letter:
I23: T 4.32; W 2.45; Y 4.55; V 4.83; Q 4.43; R 3.09; S 3.79
